Measurements taken from the supplement of paper PMC10567573.

B1: C10orf62 (parent)
chain: TSECPSDKDKSPESHKAKNESWIK
B2: DVL3 (parent)
chain: SDVVDWLYHNVEGFTDRREARKYA

Variants of: B1
Experiment: protein stability index of a GFP-peptide fusion (GPS, HEK-293T) (PSI 1-6); higher = more stable
Details: c terminus: a fixed tail appended
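Further: lentivirally expressed fusions sorted by FACS into six bins by GFP to DsRed ratio, PSI derived from sequencing read proportions per bin multiplied by bin number.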

Variant | protein stability index
TSECPQDKDKSPESHKAKNESWIK | 3.75
TSECPIDKDKSPESHKAKNESWIK | 3.35
TSECPWDKDKSPESHKAKNESWIK | 2.71
TSECPMDKDKSPESHKAKNESWIK | 2.94
TSECPVDKDKSPESHKAKNESWIK | 3.27
TSECPKDKDKSPESHKAKNESWIK | 2.95
TSECPCDKDKSPESHKAKNESWIK | 3.17
TSECPGDKDKSPESHKAKNESWIK | 3.62
TSECPADKDKSPESHKAKNESWIK | 4.02
TSECPYDKDKSPESHKAKNESWIK | 2.82
TSECPFDKDKSPESHKAKNESWIK | 3.34
TSECPLDKDKSPESHKAKNESWIK | 3.82
TSECPNDKDKSPESHKAKNESWIK | 3.76
TSECPPDKDKSPESHKAKNESWIK | 3.37
TSECPEDKDKSPESHKAKNESWIK | 3.71
TSECPDDKDKSPESHKAKNESWIK | 3.51
TSECPHDKDKSPESHKAKNESWIK | 3.56
TSECPRDKDKSPESHKAKNESWIK | 2.75
TSECPTDKDKSPESHKAKNESWIK | 2.92
TSECPSDADKSPESHKAKNESWIK | 3.08
TSECPSDQDKSPESHKAKNESWIK | 3.52
TSECPSDEDKSPESHKAKNESWIK | 4.41
TSECPSDRDKSPESHKAKNESWIK | 3.95
TSECPSDSDKSPESHKAKNESWIK | 3.84
TSECPSDGDKSPESHKAKNESWIK | 4.03
TSECPSDIDKSPESHKAKNESWIK | 3.48

Variant | protein stability index
TSECPSDWDKSPESHKAKNESWIK | 2.99
TSECPSDYDKSPESHKAKNESWIK | 3.26
TSECPSDVDKSPESHKAKNESWIK | 3.62
TSECPSDMDKSPESHKAKNESWIK | 3.52
TSECPSDPDKSPESHKAKNESWIK | 3.38
TSECPSDCDKSPESHKAKNESWIK | 3.52
TSECPSDDDKSPESHKAKNESWIK | 3.35
TSECPSDNDKSPESHKAKNESWIK | 3.31
TSECPSDHDKSPESHKAKNESWIK | 3.15
TSECPSDFDKSPESHKAKNESWIK | 3.68
TSECPSDLDKSPESHKAKNESWIK | 3.38
TSECPSDTDKSPESHKAKNESWIK | 3.45
TSECQSDKDKSPESHKAKNESWIK | 3.32
TSECLSDKDKSPESHKAKNESWIK | 3.33
TSECESDKDKSPESHKAKNESWIK | 3.84
TSECKSDKDKSPESHKAKNESWIK | 3.24
TSECWSDKDKSPESHKAKNESWIK | 3.04
TSECISDKDKSPESHKAKNESWIK | 3.86
TSECDSDKDKSPESHKAKNESWIK | 3.84
TSECMSDKDKSPESHKAKNESWIK | 3.08
TSECASDKDKSPESHKAKNESWIK | 3.72
TSECCSDKDKSPESHKAKNESWIK | 2.8
TSECHSDKDKSPESHKAKNESWIK | 3.75
TSECVSDKDKSPESHKAKNESWIK | 4.14
TSECYSDKDKSPESHKAKNESWIK | 3.59
TSECRSDKDKSPESHKAKNESWIK | 3.45

Variant | protein stability index
TSECGSDKDKSPESHKAKNESWIK | 3.41
TSECTSDKDKSPESHKAKNESWIK | 2.9
TSECSSDKDKSPESHKAKNESWIK | 3
TSECFSDKDKSPESHKAKNESWIK | 3.28
TSECNSDKDKSPESHKAKNESWIK | 3.94
RSECPSDKDKSPESHKAKNESWIK | 4.3
ESECPSDKDKSPESHKAKNESWIK | 3.09
FSECPSDKDKSPESHKAKNESWIK | 3.08
HSECPSDKDKSPESHKAKNESWIK | 3.57
MSECPSDKDKSPESHKAKNESWIK | 3.23
QSECPSDKDKSPESHKAKNESWIK | 3.27
VSECPSDKDKSPESHKAKNESWIK | 2.3
NSECPSDKDKSPESHKAKNESWIK | 3.38
LSECPSDKDKSPESHKAKNESWIK | 4.35
ISECPSDKDKSPESHKAKNESWIK | 3.04
YSECPSDKDKSPESHKAKNESWIK | 3.14
DSECPSDKDKSPESHKAKNESWIK | 3.6
KSECPSDKDKSPESHKAKNESWIK | 3.31
CSECPSDKDKSPESHKAKNESWIK | 2.88
ASECPSDKDKSPESHKAKNESWIK | 2.87
WSECPSDKDKSPESHKAKNESWIK | 2.28
TSCCPSDKDKSPESHKAKNESWIK | 3.01
TSNCPSDKDKSPESHKAKNESWIK | 3.36
TSPCPSDKDKSPESHKAKNESWIK | 4.09
TSMCPSDKDKSPESHKAKNESWIK | 2.88
TSKCPSDKDKSPESHKAKNESWIK | 2.92

Variant | protein stability index
TSSCPSDKDKSPESHKAKNESWIK | 3.34
TSACPSDKDKSPESHKAKNESWIK | 2.94
TSQCPSDKDKSPESHKAKNESWIK | 2.94
TSTCPSDKDKSPESHKAKNESWIK | 3.27
TSHCPSDKDKSPESHKAKNESWIK | 2.84
TSRCPSDKDKSPESHKAKNESWIK | 3.21
TSYCPSDKDKSPESHKAKNESWIK | 2.73
TSWCPSDKDKSPESHKAKNESWIK | 2.63
TSLCPSDKDKSPESHKAKNESWIK | 3.5
TSICPSDKDKSPESHKAKNESWIK | 2.14
TSDCPSDKDKSPESHKAKNESWIK | 2.73
TSVCPSDKDKSPESHKAKNESWIK | 2.87
TSGCPSDKDKSPESHKAKNESWIK | 3.73
TEECPSDKDKSPESHKAKNESWIK | 3.98
TIECPSDKDKSPESHKAKNESWIK | 3.25
TAECPSDKDKSPESHKAKNESWIK | 2.63
TPECPSDKDKSPESHKAKNESWIK | 3.17
THECPSDKDKSPESHKAKNESWIK | 3.47
TQECPSDKDKSPESHKAKNESWIK | 3.85
TNECPSDKDKSPESHKAKNESWIK | 3.74
TDECPSDKDKSPESHKAKNESWIK | 3.7
TKECPSDKDKSPESHKAKNESWIK | 3.13
TRECPSDKDKSPESHKAKNESWIK | 4.43
TMECPSDKDKSPESHKAKNESWIK | 3.17
TCECPSDKDKSPESHKAKNESWIK | 3.96
TYECPSDKDKSPESHKAKNESWIK | 3.47

Variant | protein stability index
TGECPSDKDKSPESHKAKNESWIK | 3.26
TLECPSDKDKSPESHKAKNESWIK | 3.24
TFECPSDKDKSPESHKAKNESWIK | 3.12
TWECPSDKDKSPESHKAKNESWIK | 3.64
TTECPSDKDKSPESHKAKNESWIK | 3.03
TSECPSVKDKSPESHKAKNESWIK | 3.52
TSECPSQKDKSPESHKAKNESWIK | 3.2
TSECPSMKDKSPESHKAKNESWIK | 2.82
TSECPSKKDKSPESHKAKNESWIK | 3.55
TSECPSGKDKSPESHKAKNESWIK | 3.38
TSECPSIKDKSPESHKAKNESWIK | 2.3
TSECPSEKDKSPESHKAKNESWIK | 2.57
TSECPSLKDKSPESHKAKNESWIK | 2.81
TSECPSCKDKSPESHKAKNESWIK | 3.2
TSECPSTKDKSPESHKAKNESWIK | 3.14
TSECPSPKDKSPESHKAKNESWIK | 3.6
TSECPSYKDKSPESHKAKNESWIK | 2.85
TSECPSNKDKSPESHKAKNESWIK | 3.11
TSECPSFKDKSPESHKAKNESWIK | 2.84
TSECPSHKDKSPESHKAKNESWIK | 2.88
TSECPSRKDKSPESHKAKNESWIK | 2.35
TSECPSWKDKSPESHKAKNESWIK | 2.58
TSECPSAKDKSPESHKAKNESWIK | 2.6
TSETPSDKDKSPESHKAKNESWIK | 3.28
TSEDPSDKDKSPESHKAKNESWIK | 3.17
TSEAPSDKDKSPESHKAKNESWIK | 3.53

Variant | protein stability index
TSEGPSDKDKSPESHKAKNESWIK | 3.94
TSEYPSDKDKSPESHKAKNESWIK | 3.15
TSEHPSDKDKSPESHKAKNESWIK | 3.34
TSELPSDKDKSPESHKAKNESWIK | 3.74
TSENPSDKDKSPESHKAKNESWIK | 3.4
TSEKPSDKDKSPESHKAKNESWIK | 3.51
TSEQPSDKDKSPESHKAKNESWIK | 3.52
TSESPSDKDKSPESHKAKNESWIK | 2.46
TSEMPSDKDKSPESHKAKNESWIK | 3.79
TSEEPSDKDKSPESHKAKNESWIK | 3.55
TSEPPSDKDKSPESHKAKNESWIK | 3.39
TSEWPSDKDKSPESHKAKNESWIK | 2.58
TSEFPSDKDKSPESHKAKNESWIK | 3.33
TSEIPSDKDKSPESHKAKNESWIK | 3.92
TSERPSDKDKSPESHKAKNESWIK | 3.15
TSECPSDKHKSPESHKAKNESWIK | 3.18
TSECPSDKKKSPESHKAKNESWIK | 2.25
TSECPSDKLKSPESHKAKNESWIK | 2.54
TSECPSDKFKSPESHKAKNESWIK | 2.16
TSECPSDKCKSPESHKAKNESWIK | 2.46
TSECPSDKEKSPESHKAKNESWIK | 3
TSECPSDKGKSPESHKAKNESWIK | 3.42
TSECPSDKAKSPESHKAKNESWIK | 2.68

Variants of: B2
Experiment: as above
Details: c terminus: a fixed tail appended

Variant | protein stability index
SDVVDWLYHNVEGFTDRREARKYE | 2.62
SDVVDWLYHNVEGFTDRREARKYF | 2.82
SDVVDWLYHNVEGFTDRREARKYR | 3.11
SDVVDWLYHNVEGFTDRREARKYL | 2.66
SDVVDWLYHNVEGFTDRREARKYN | 3.62
SDVVDWLYHNVEGFTDRREARKYI | 1.95
SDVVDWLYHNVEGFTDRREARKYC | 3.45
SDVVDWLYHNVEGFTDRREARKYV | 2.74
SDVVDWLYHNVEGFTDRREARKYY | 2.99
SDVVDWLYHNVEGFTDRREARKYM | 2.68
SDVVDWLYHNVEGFTDRREARKYW | 1.09
SDVVDWLYHNVEGFTDRREARKYH | 3.34
SDVVDWLYHNVEGFTDRREARKYQ | 3.71
SDVVDWLYHNVEGFTDRREARKYK | 3.12
SDVVDWLYHNVEGFTDRREARKYP | 3.42
SDVVDWLYHNVEGFTDRREARKYD | 4.05
SDVVDWLYHNVEGFTDRREARKYT | 2.79
SDVVDWLYHNVEGFTDRREARKPA | 3.97

Variant | protein stability index
SDVVDWLYHNVEGFTDRREARKLA | 3.15
SDVVDWLYHNVEGFTDRREARKEA | 3.97
SDVVDWLYHNVEGFTDRREARKAA | 4.21
SDVVDWLYHNVEGFTDRREARKTA | 3.55
SDVVDWLYHNVEGFTDRREARKSA | 4.11
SDVVDWLYHNVEGFTDRREARKHA | 3.73
SDVVDWLYHNVEGFTDRREARKNA | 4.05
SDVVDWLYHNVEGFTDRREARKKA | 3.83
SDVVDWLYHNVEGFTDRREARKRA | 4.18
SDVVDWLYHNVEGFTDRREARKVA | 3.6
SDVVDWLYHNVEGFTDRREARKDA | 3.95
SDVVDWLYHNVEGFTDRREARKIA | 2.82
SDVVDWLYHNVEGFTDRREARKCA | 3.69
SDVVDWLYHNVEGFTDRREARKGA | 4.05
SDVVDWLYHNVEGFTDRREARKFA | 3.17
SDVVDWLYHNVEGFTDRREARKWA | 2.75
SDVVDWLYHNVEGFTDRREARYYA | 1.96
